Blank lines part the entries; values can stand above or below the binder they belong to.
Tests used:
ADAM10 = target: T1, ADAM10 (UniProt O14672 214-748, limits assumed); assay: co-immunoprecipitation from ECFC in control condition (ADAM10 immunoprecipitated, CD146 isoforms detected by western blot)
T1 construct: Endogenous protein of ECFC endothelial cells
T1 sequence (looked up): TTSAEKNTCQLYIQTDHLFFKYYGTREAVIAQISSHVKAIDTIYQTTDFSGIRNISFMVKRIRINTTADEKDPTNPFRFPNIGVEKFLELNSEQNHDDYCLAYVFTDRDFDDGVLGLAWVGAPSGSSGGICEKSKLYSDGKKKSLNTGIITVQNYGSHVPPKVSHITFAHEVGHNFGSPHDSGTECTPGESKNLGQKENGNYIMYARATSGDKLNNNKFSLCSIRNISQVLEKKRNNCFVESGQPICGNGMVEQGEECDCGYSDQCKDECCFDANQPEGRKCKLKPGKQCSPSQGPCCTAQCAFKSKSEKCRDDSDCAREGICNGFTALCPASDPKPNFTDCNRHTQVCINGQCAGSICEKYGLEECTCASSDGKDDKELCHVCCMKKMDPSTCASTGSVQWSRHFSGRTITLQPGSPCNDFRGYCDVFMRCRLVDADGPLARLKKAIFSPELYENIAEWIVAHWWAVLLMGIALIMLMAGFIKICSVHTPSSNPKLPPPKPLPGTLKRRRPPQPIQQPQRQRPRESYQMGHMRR
Source text: C: ADAM10 was immunoprecipitated in ECFC cultured in basal condition (EBM2). The long (IgCD146) and short (shCD146) isoforms of CD146 were then detected by western blot using specific antibodies. Results are representative of 3 different experiments.

Human long CD146 protein = target: T2, Human long CD146 protein
T2 chain: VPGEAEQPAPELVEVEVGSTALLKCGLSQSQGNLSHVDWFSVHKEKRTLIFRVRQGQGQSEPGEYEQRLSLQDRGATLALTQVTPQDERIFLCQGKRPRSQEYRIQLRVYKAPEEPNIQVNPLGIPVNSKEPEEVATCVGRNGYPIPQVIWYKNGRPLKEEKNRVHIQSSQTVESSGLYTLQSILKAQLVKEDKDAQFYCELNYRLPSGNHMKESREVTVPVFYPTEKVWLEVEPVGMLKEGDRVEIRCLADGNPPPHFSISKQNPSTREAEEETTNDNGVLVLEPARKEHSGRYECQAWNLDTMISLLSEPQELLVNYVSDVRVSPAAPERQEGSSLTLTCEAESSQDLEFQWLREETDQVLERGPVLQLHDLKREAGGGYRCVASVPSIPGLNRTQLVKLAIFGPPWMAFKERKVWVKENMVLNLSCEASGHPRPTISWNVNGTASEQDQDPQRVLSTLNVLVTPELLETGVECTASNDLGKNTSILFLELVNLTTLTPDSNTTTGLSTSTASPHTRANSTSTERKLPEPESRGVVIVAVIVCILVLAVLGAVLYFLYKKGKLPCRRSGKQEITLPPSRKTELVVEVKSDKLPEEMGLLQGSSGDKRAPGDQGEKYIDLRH

binding result (ADAM10): no binding
B1: Human short CD146 protein (other)
chain: VPGEAEQPAPELVEVEVGSTALLKCGLSQSQGNLSHVDWFSVHKEKRTLIFRVRQGQGQSEPGEYEQRLSLQDRGATLALTQVTPQDERIFLCQGKRPRSQEYRIQLRVYKAPEEPNIQVNPLGIPVNSKEPEEVATCVGRNGYPIPQVIWYKNGRPLKEEKNRVHIQSSQTVESSGLYTLQSILKAQLVKEDKDAQFYCELNYRLPSGNHMKESREVTVPVFYPTEKVWLEVEPVGMLKEGDRVEIRCLADGNPPPHFSISKQNPSTREAEEETTNDNGVLVLEPARKEHSGRYECQAWNLDTMISLLSEPQELLVNYVSDVRVSPAAPERQEGSSLTLTCEAESSQDLEFQWLREETDQVLERGPVLQLHDLKREAGGGYRCVASVPSIPGLNRTQLVKLAIFGPPWMAFKERKVWVKENMVLNLSCEASGHPRPTISWNVNGTASEQDQDPQRVLSTLNVLVTPELLETGVECTASNDLGKNTSILFLELVNLTTLTPDSNTTTGLSTSTASPHTRANSTSTERKLPEPESRGVVIVAVIVCILVLAVLGAVLYFLYKKGKLPCRRSGKQEMERNTSI
notes: Endogenous membrane isoform in ECFC, detected by western blot in immunoprecipitates from cell lysates; also expressed from a plasmid in CHO cells; also called shCD146; short isoform of CD146

B2: ADAM10 (protein)
chain: T1 sequence (looked up)
reduction of sCD146 secretion by ECFC under TNF after ADAM10 siRNA (Human long CD146 protein): ADAM10 and Tace siRNA reduced sCD146 secretion by 60% and 25%, respectively | sCD146 secretion by ECFC in control condition after siRNA (Human long CD146 protein): only ADAM10 siRNA was able to inhibit sCD146 secretion and that the effect was similar to that of GM6001 | sCD146 secretion by a CHO clone stably expressing lgCD146 after transfection with an ADAM10 plasmid (Human long CD146 protein): in the presence of ADAM10, sCD146 secretion was significantly increased

From patent US20220003784A1 (ASSISTANCE PUBLIQUE H PITAUX DE MARSEILLE, published 2022)
